Laboratory results published in patent EP4541891A1, “NOVEL LRP1-BINDING PEPTIDE” (Ichimaru Pharcos Co., Ltd., priority 2022, dated 2025).
Bridge positions count the residues as written; N and C are the ends. Square brackets hold non-standard residues; d marks the D form. Ends that are not written are not given here. Peptide text beside a SMILES is read from it. * marks the point of attachment. 5FAM = O=C1OC2(c3ccc(O)cc3Oc3cc(O)ccc32)c2ccc(C(=O)*)cc21; Biotin = O=C1N[C@H]2[C@H](CS[C@H]2CCCCC(=O)*)N1; Hyp = O=C(O)[C@@H]1C[C@@H](O)CN1; Nle = CCCC[C@H](N)C(=O)O; Aib = CC(C)(N)C(=O)O

Legend:
[1] = system: LRP1 cluster 4-Fc chimeric proteins; test: Competitive binding assay by ELISA against Sequence 46; conditions: peptide 2,000 nM versus Sequence 46 (500 nM); time point not stated
Protocol: For comparison between the peptide of Sequence 1 with amino acid substitutions and the peptide of Sequence 2 in terms of the LRP1 binding activity and the resistance to protease degradation, a competitive binding assay by ELISA shown in FIG. 2 was constructed. Immediately (zero hour) or 24 hours after the mixing of the peptide of Sequence 2 or the amino acid-substituted peptide with mouse plasma at 37°C, the mixture was diluted to sufficiently lower the plasma concentration to any desired final concentration, and mixed with Sequence 46 (500 nM). This mixture was subjected to the competitive binding assay described above. The binding of Sequence 46 to the LRP1 cluster 4-Fc chimera proteins competes with the binding of Sequence 2 or the amino acid-substituted peptide to the LRP1 cluster 4-Fc chimera proteins, and thus is inhibited depending on the concentration of Sequence 2 or the amino acid-substituted peptide. That is, the binding activity of Sequence 2 or the amino acid-substituted peptide to the LRP1 cluster 4-Fc chimera proteins is detected as competitive inhibitory activity against the binding of Sequence 46. Regarding the binding value of Sequence 46 to the wells in which the LRP1 cluster 4-Fc chimeric proteins were not captured as 100% inhibitory activity and the binding value of Sequence 46 to the wells in which Sequence 2 or the amino acid-substituted peptide was not added as 0% inhibitory activity, the inhibitory activity values of Sequence 2 and the amino acid-substituted peptide were calculated in %.
Sequence 2 incubated with plasma for zero hour inhibited the binding of Sequence 46 in a concentration-dependent manner. […] However, the binding of Sequence 46 (500 nM) in wells loaded with 2,000 nM equivalent Sequence 2 averaged 50.6%.
Immediately or 24 hours after Sequences 1 to 44 were mixed with mouse plasma at 37°C, the mixtures were diluted to sufficiently lower the plasma concentration to a final concentration of 2,000 nM, and mixed with Sequence 46 (500 nM). The obtained mixtures were subjected to the above-described competitive binding assay. […] Other sequences tended to have diminished inhibitory activities.

[2] = target: LRP1 cluster 4-Fc chimeric proteins (UniProt Q07954); test: competitive ELISA, LRP1 cluster 4-Fc captured; peptide 2,000 nM against biotin-Sequence 46 500 nM
[3] = target: LRP1 cluster 4-Fc chimeric proteins (UniProt Q07954); test: ELISA, LRP1 cluster 4-Fc captured, biotin peptide detected with SA-HRP

Chain of UniProt Q07954 (Q07954 3293-3783, stated change not applied): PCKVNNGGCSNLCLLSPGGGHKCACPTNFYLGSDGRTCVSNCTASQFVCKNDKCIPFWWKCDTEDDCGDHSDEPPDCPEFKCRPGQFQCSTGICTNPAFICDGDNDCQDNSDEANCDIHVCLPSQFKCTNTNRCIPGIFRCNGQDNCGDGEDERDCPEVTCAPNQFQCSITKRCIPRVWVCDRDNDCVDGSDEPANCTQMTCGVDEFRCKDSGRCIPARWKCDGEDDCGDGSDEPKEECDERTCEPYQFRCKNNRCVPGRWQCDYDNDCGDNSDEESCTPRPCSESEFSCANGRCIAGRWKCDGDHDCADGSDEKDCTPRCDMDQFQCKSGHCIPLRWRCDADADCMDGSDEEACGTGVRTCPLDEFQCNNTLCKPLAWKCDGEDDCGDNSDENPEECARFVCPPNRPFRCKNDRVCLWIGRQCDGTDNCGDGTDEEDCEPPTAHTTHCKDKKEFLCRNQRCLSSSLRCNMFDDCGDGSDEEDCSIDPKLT

CCCC[C@@H]1NC(=O)[C@H](CCC(=O)O)NC(=O)[C@H](C)NC(=O)[C@H](CC(C)C)NC(=O)[C@H](CCCC)NC(=O)[C@H](Cc2ccc(O)cc2)NC(=O)[C@H](CCCCN)NC(=O)[C@H](Cc2ccc(O)cc2)NC(=O)[C@H]([C@@H](C)O)NC(=O)[C@H](NC(=O)[C@@H]2CCCN2C(=O)[C@@H](NC(=O)CNC(=O)[C@H](CCCCNC(=O)c2ccc3c(c2)C(=O)OC32c3ccc(O)cc3Oc3cc(O)ccc32)NC(C)=O)[C@@H](C)O)CSSC[C@@H](C(=O)O)NC1=O [Sequence 6, Ac-Lys(5FAM)-Gly-Thr-Pro-c(^DCys-Thr-Tyr-Lys-Tyr-Nle-Leu-Ala-Glu-Nle-Cys)-OH] (Ac-K(5FAM)GTP[dC]TYKY[Nle]LAE[Nle]C-OH; disulfide 5-15)
inhibitory activity [1]: 91.9%

CCCC[C@@H]1NC(=O)[C@H](CCC(=O)O)NC(=O)[C@H](C)NC(=O)[C@H](CC(C)C)NC(=O)[C@H](CCCC)NC(=O)[C@H](Cc2ccc(O)cc2)NC(=O)[C@H](CCCNC(=N)N)NC(=O)[C@H](Cc2ccc(O)cc2)NC(=O)[C@H]([C@@H](C)O)NC(=O)[C@@H](NC(=O)[C@@H]2CCCN2C(=O)[C@@H](NC(=O)CNC(=O)[C@H](CCCCNC(=O)c2ccc3c(c2)C(=O)OC32c3ccc(O)cc3Oc3cc(O)ccc32)NC(C)=O)[C@@H](C)O)CSSC[C@@H](C(=O)O)NC1=O [Sequence 24, Ac-Lys(5FAM)-Gly-Thr-Pro-c(Cys-Thr-Tyr-Arg-Tyr-Nle-Leu-Ala-Glu-Nle-Cys)-OH] (Ac-K(5FAM)GTPCTYRY[Nle]LAE[Nle]C-OH; disulfide 5-15)
inhibitory activity [1]: 77.4%

CCCC[C@@H]1NC(=O)[C@H](CCC(=O)O)NC(=O)C(C)(C)NC(=O)[C@H](CC(C)C)NC(=O)[C@H](CCCC)NC(=O)[C@H](Cc2ccc(O)cc2)NC(=O)[C@H](CCCCN)NC(=O)[C@H](Cc2ccc(O)cc2)NC(=O)[C@H]([C@@H](C)O)NC(=O)[C@@H](NC(=O)[C@@H]2CCCN2C(=O)[C@@H](NC(=O)CNC(=O)[C@H](CCCCNC(=O)c2ccc3c(c2)C(=O)OC32c3ccc(O)cc3Oc3cc(O)ccc32)NC(C)=O)[C@@H](C)O)CSSC[C@@H](C(=O)O)NC1=O [Sequence 34, Ac-Lys(5FAM)-Gly-Thr-Pro-c(Cys-Thr-Tyr-Lys-Tyr-Nle-Leu-Aib-Glu-Nle-Cys)-OH] (Ac-K(5FAM)GTPCTYKY[Nle]L[Aib]E[Nle]C-OH; disulfide 5-15)
inhibitory activity [1]: 82.0%

CCCC[C@@H]1NC(=O)[C@H](Cc2ccc(O)cc2)NC(=O)[C@H](CCCCN)NC(=O)[C@H](Cc2ccc(O)cc2)NC(=O)[C@H]([C@@H](C)O)NC(=O)[C@@H](NC(=O)[C@@H]2CCCN2C(=O)[C@@H](NC(=O)CNC(=O)[C@H](CCCCNC(=O)c2ccc3c(c2)C(=O)OC32c3ccc(O)cc3Oc3cc(O)ccc32)NC(C)=O)[C@@H](C)O)CSSC[C@@H](C(=O)O)NC(=O)[C@@H]2CCCN2C(=O)[C@H](CCCC)NC(=O)[C@H](CCC(=O)O)NC(=O)[C@H](C)NC(=O)[C@H](CC(C)C)NC1=O [Sequence 43, Ac-Lys(5FAM)-Gly-Thr-Pro-c(Cys-Thr-Tyr-Lys-Tyr-Nle-Leu-Ala-Glu-Nle-Pro-Cys)-OH] (Ac-K(5FAM)GTPCTYKY[Nle]LAE[Nle]PC-OH; disulfide 5-16)
inhibitory activity [1]: 83.5%

Ac-Lys(5FAM)-Gly-Thr-Pro-Cys-Thr-Tyr-Lys-Tyr-Nle-Leu-Ala-Glu-Nle-Cys)-OH (Ac-K(5FAM)GTPCTYKY[Nle]LAE[Nle]C-OH; not fully specified (bridges); printed as Ac-Lys(5FAM)-Gly-Thr-Pro-Cys-Thr-Tyr-Lys-Tyr-Nle-Leu-Ala-Glu-Nle-Cys)-OH; also: cyclic, bridge type not given here) [Sequence 1]
inhibitory activity [1]: 70.7%

Ac-Lys(5FAM)-Gly-Thr-Pro-Cys-Thr-Tyr-Lys-Tyr-Nle-Leu-Ala-Glu-Nle-^DCys-OH (Ac-K(5FAM)GTPCTYKY[Nle]LAE[Nle][dC]-OH; cysteine pairing not given here) [Sequence 9]
inhibitory activity [1]: 85.8%

Ac-Lys(5FAM)-Gly-Thr-Pro-c(^DCys-Thr-Tyr-Lys-Tyr-Nle-Leu-Ala-Glu-Nle-Cys)-OH (KGTPCTYKYXLAEXC; N-acetyl, Lys(5FAM), cyclic, D-residue, Nle residues; CROSSLNK 5..15: note = methylene thioactal (-S-CH2-S-); SITE 5: note = D-Cys; SITE 10: note = Nle; SITE 14: note = Nle; MOD_RES 1: note = N-acetyllysine labeled with 5-FAM) [Sequence 7]
inhibitory activity [1]: 87.6%

Ac-K(5FAM)GTPCTYRY[Nle]LAE[Nle]C (disulfide 5-15) [SEQUENCE 24]
inhibitory activity (%) [2]: 77.4%

Ac-K(Biotin)GTPCTYKY[Nle]LAE[Nle]C (cysteine pairing not given here) [SEQUENCE 45]
EC50 [3]: 10.5 nM

Ac-K(5FAM)GTPCTYKY[Nle]LAE[Nle]C (cysteine pairing not given here) [SEQUENCE 1]
inhibitory activity (%) [2]: 70.7%

Ac-K(5FAM)GTPCTYKY[Nle]L[Aib]E[Nle]C (disulfide 5-15) [SEQUENCE 34]
inhibitory activity (%) [2]: 82%

Ac-K(5FAM)GTPC[Hyp]YKY[Nle]LAE[Nle]C (disulfide 5-15) [SEQUENCE 19]
inhibitory activity (%) [2]: 79.1%

Ac-K(5FAM)GTPCTYKY[Nle]LAE[Nle][dC] (cysteine pairing not given here) [SEQUENCE 9]
inhibitory activity (%) [2]: 85.8%

Ac-K(5FAM)GTP[dC]TYKY[Nle]LAE[Nle]C (disulfide 5-15) [SEQUENCE 6]
inhibitory activity (%) [2]: 91.9%

Ac-K(5FAM)GTP[dC]TYKY[Nle]LAE[Nle]C (bridge 5-15 via S‑C‑S (methylene)) [SEQUENCE 7]
inhibitory activity (%) [2]: 87.6%

Ac-K(Biotin)GTPCTYKY[Nle]LAE[Nle]C (disulfide 5-15) [SEQUENCE 46]
EC50 [3]: 11 nM

Ac-K(5FAM)GTPCTYKY[Nle]LAE[Nle]PC (disulfide 5-16) [SEQUENCE 43]
inhibitory activity (%) [2]: 83.5%
